The values below come from the supplement of paper PMC5998384.

Data set [1] has as its system HeLa Kyoto. The data set can be described thus: thermal stability score vs G1/S (z-score of summed log2 fold changes over temperatures); higher = more thermally stable than in G1/S.
The test system of data set [2] is HeLa Kyoto. Briefly: solubility change mitosis vs G1/S (difference of NP-40 vs SDS log2 ratios) (log2 ratio difference); higher = more soluble in mitosis.
In data set [3] the test system is HeLa Kyoto. The data set can be described thus: solubility in G1/S (NP-40 vs SDS abundance) (log2 ratio); higher = more soluble. The note with it: cell cycle stage: G1/S.
For data set [4], the system named is HeLa Kyoto. Briefly: melting temperature (median over replicates), in situ; higher = more thermally stable.
Setting [5] is: cell cycle stage: early G1 (4.5 h after nocodazole release).
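Wherever melting temperature (median over replicates), in situ is given: HeLa Kyoto cells synchronized by double thymidine or nocodazole block, proteins quantified by TMT10plex mass spectrometry, three independent biological replicates.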
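Wherever solubility change mitosis vs G1/S (difference of NP-40 vs SDS log2 ratios) is given: synchronized HeLa Kyoto cells (double thymidine block for G1/S, nocodazole release for mitosis), protein amounts in NP-40 versus SDS lysates quantified by mass spectrometry, three biological replicates.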
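Wherever solubility in G1/S (NP-40 vs SDS abundance) is given: HeLa Kyoto cells arrested at G1/S by double thymidine block, proteins quantified by TMT10plex mass spectrometry in mild NP-40 versus SDS extracts, three biological replicates.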
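Wherever thermal stability score vs G1/S (z-score of summed log2 fold changes over temperatures) is given: synchronized HeLa Kyoto cells, proteins quantified by TMT10plex mass spectrometry, three biological replicates, mitosis taken 0.5 h after nocodazole release, G1/S directly after double thymidine block.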

For the sequence “MGSSATEIEELENTTFKYLTGEQTEKMWQRLKGILRCLVKQLERGDVNVVDLKKNIEYAASVLEAVYIDETRRLLDTEDELSDIQTDSVPSEVRDWLASTFTRKMGMTKKKPEEKPKFRSIVHAVQAGIFVERMYRKTYHMVGLAYPAAVIVTLKDVDKWSFDVFALNEASGEHSLKFMIYELFTRYDLINRFKIPVSCLITFAEALEVGYSKYKNPYHNLIHAADVTQTVHYIMLHTGIMHWLTELEILAMVFAAAIHDYEHTGTTNNFHIQTRSDVAILYNDRSVLENHHVSAAYRLMQEEEMNILINLSKDDWRDLRNLVIEMVLSTDMSGHFQQIKNIRNSLQQPEGIDRAKTMSLILHAADISHPAKSWKLHYRWTMALMEEFFLQGDKEAELGLPFSPLCDRKSTMVAQSQIGFIDFIVEPTFSLLTDSTEKIVIPLIEEASKAETSSYVASSSTTIVGLHIADALRRSNTKGSMSDGSYSPDYSLAAVDLKSFKNNLVDIIQQNKERWKELAAQEARTSSQKCEFIHQ [PDE1A]”, the thermal stability score in the data set on HeLa Kyoto [1] (setting [5]) was 1.43; with HeLa Kyoto [1] (cell cycle stage: mitosis), 2.27. In the data set with HeLa Kyoto [2], the “solubility change mitosis (log2)” value was -0.0985. Also, the “solubility in G1/S (log2)” value with HeLa Kyoto [3] is -0.162. Besides, the melting temperature worked out at 55.2 °C with HeLa Kyoto [4] (cell cycle stage: G1/S) and 54.1 °C in the data set on HeLa Kyoto [4] (cell cycle stage: mitosis).
As to “MSRIEKMSILGVRSFGIEDKDKQIITFFSPLTILVGPNGAGKTTIIECLKYICTGDFPPGTKGNTFVHDPKVAQETDVRAQIRLQFRDVNGELIAVQRSMVCTQKSKKTEFKTLEGVITRTKHGEKVSLSSKCAEIDREMISSLGVSKAVLNNVIFCHQEDSNWPLSEGKALKQKFDEIFSATRYIKALETLRQVRQTQGQKVKEYQMELKYLKQYKEKACEIRDQITSKEAQLTSSKEIVKSYENELDPLKNRLKEIEHNLSKIMKLDNEIKALDSRKKQMEKDNSELEEKMEKVFQGTDEQLNDLYHNHQRTVREKERKLVDCHRELEKLNKESRLLNQEKSELLVEQGRLQLQADRHQEHIRARDSLIQSLATQLELDGFERGPFSERQIKNFHKLVRERQEGEAKTANQLMNDFAEKETLKQKQIDEIRDKKTGLGRIIELKSEILSKKQNELKNVKYELQQLEGSSDRILELDQELIKAERELSKAEKNSNVETLKMEVISLQNEKADLDRTLRKLDQEMEQLNHHTTTRTQMEMLTKDKADKDEQIRKIKSRHSDELTSLLGYFPNKKQLEDWLHSKSKEINQTRDRLAKLNKELASSEQNKNHINNELKRKEEQLSSYEDKLFDVCGSQDFESDLDRLKEEIEKSSKQRAMLAGATAVYSQFITQLTDENQSCCPVCQRVFQTEAELQEVISDLQSKLRLAPDKLKSTESELKKKEKRRDEMLGLVPMRQSIIDLKEKEIPELRNKLQNVNRDIQRLKNDIEEQETLLGTIMPEEESAKVCLTDVTIMERFQMELKDVERKIAQQAAKLQGIDLDRTVQQVNQEKQEKQHKLDTVSSKIELNRKLIQDQQEQIQHLKSTTNELKSEKLQISTNLQRRQQLEEQTVELSTEVQSLYREIKDAKEQVSPLETTLEKFQQEKEELINKKNTSNKIAQDKLNDIKEKVKNIHGYMKDIENYIQDGKDDYKKQKETELNKVIAQLSECEKHKEKINEDMRLMRQDIDTQKIQERWLQDNLTLRKRNEELKEVEEERKQHLKEMGQMQVLQMKSEHQKLEENIDNIKRNHNLALGRQKGYEEEIIHFKKELREPQFRDAEEKYREMMIVMRTTELVNKDLDIYYKTLDQAIMKFHSMKMEEINKIIRDLWRSTYRGQDIEYIEIRSDADENVSASDKRRNYNYRVVMLKGDTALDMRGRCSAGQKVLASLIIRLALAETFCLNCGIIALDEPTTNLDRENIESLAHALVEIIKSRSQQRNFQLLVITHDEDFVELLGRSEYVEKFYRIKKNIDQCSEIVKCSVSSLGFNVH [RAD50]”, the thermal stability score with HeLa Kyoto [1] (setting [5]) was 2.17; in the data set with HeLa Kyoto [1] (cell cycle stage: mitosis), 3.45. Moreover, in the data set on HeLa Kyoto [2], the “solubility change mitosis (log2)” value was -0.108. Besides, the “solubility in G1/S (log2)” value in the data set with HeLa Kyoto [3] is -0.129. Besides, the melting temperature came out at 48.8 °C in the data set on HeLa Kyoto [4] (cell cycle stage: G1/S) and 49.7 °C with HeLa Kyoto [4] (cell cycle stage: mitosis).
With “MEKTQETVQRILLEPYKYLLQLPGKQVRTKLSQAFNHWLKVPEDKLQIIIEVTEMLHNASLLIDDIEDNSKLRRGFPVAHSIYGIPSVINSANYVYFLGLEKVLTLDHPDAVKLFTRQLLELHQGQGLDIYWRDNYTCPTEEEYKAMVLQKTGGLFGLAVGLMQLFSDYKEDLKPLLNTLGLFFQIRDDYANLHSKEYSENKSFCEDLTEGKFSFPTIHAIWSRPESTQVQNILRQRTENIDIKKYCVHYLEDVGSFEYTRNTLKELEAKAYKQIDARGGNPELVALVKHLSKMFKEENE [GGPS1]”, the thermal stability score with HeLa Kyoto [1] (setting [5]) was -1.73; in the data set on HeLa Kyoto [1] (cell cycle stage: mitosis), -1.98. Further, the “solubility change mitosis (log2)” value in the data set on HeLa Kyoto [2] was -0.0913. Also, the “solubility in G1/S (log2)” value in the data set on HeLa Kyoto [3] was 0.163. The melting temperature in the data set with HeLa Kyoto [4] (cell cycle stage: G1/S) was 55.2 °C; in the data set on HeLa Kyoto [4] (cell cycle stage: mitosis), 56 °C.
As for “MNKKKKPFLGMPAPLGYVPGLGRGATGFTTRSDIGPARDANDPVDDRHAPPGKRTVGDQMKKNQAADDDDEDLNDTNYDEFNGYAGSLFSSGPYEKDDEEADAIYAALDKRMDERRKERREQREKEEIEKYRMERPKIQQQFSDLKRKLAEVTEEEWLSIPEVGDARNKRQRNPRYEKLTPVPDSFFAKHLQTGENHTSVDPRQTQFGGLNTPYPGGLNTPYPGGMTPGLMTPGTGELDMRKIGQARNTLMDMRLSQVSDSVSGQTVVDPKGYLTDLNSMIPTHGGDINDIKKARLLLKSVRETNPHHPPAWIASARLEEVTGKLQVARNLIMKGTEMCPKSEDVWLEAARLQPGDTAKAVVAQAVRHLPQSVRIYIRAAELETDIRAKKRVLRKALEHVPNSVRLWKAAVELEEPEDARIMLSRAVECCPTSVELWLALARLETYENARKVLNKARENIPTDRHIWITAAKLEEANGNTQMVEKIIDRAITSLRANGVEINREQWIQDAEECDRAGSVATCQAVMRAVIGIGIEEEDRKHTWMEDADSCVAHNALECARAIYAYALQVFPSKKSVWLRAAYFEKNHGTRESLEALLQRAVAHCPKAEVLWLMGAKSKWLAGDVPAARSILALAFQANPNSEEIWLAAVKLESENDEYERARRLLAKARSSAPTARVFMKSVKLEWVQDNIRAAQDLCEEALRHYEDFPKLWMMKGQIEEQKEMMEKAREAYNQGLKKCPHSTPLWLLLSRLEEKIGQLTRARAILEKSRLKNPKNPGLWLESVRLEYRAGLKNIANTLMAKALQECPNSGILWSEAIFLEARPQRRTKSVDALKKCEHDPHVLLAVAKLFWSQRKITKAREWFHRTVKIDSDLGDAWAFFYKFELQHGTEEQQEEVRKRCESAEPRHGELWCAVSKDIANWQKKIGDILRLVAGRIKNTF [PRPF6]”, the thermal stability score with HeLa Kyoto [1] (setting [5]) worked out at 1.08; in the data set with HeLa Kyoto [1] (cell cycle stage: mitosis), 5.32. Besides, the “solubility change mitosis (log2)” value with HeLa Kyoto [2] was 0.428. Moreover, in the data set on HeLa Kyoto [3], the “solubility in G1/S (log2)” value was -0.849. For the same sequence, the results for the melting temperature with HeLa Kyoto [4] (cell cycle stage: G1/S) and in the data set on HeLa Kyoto [4] (cell cycle stage: mitosis) were 46.8 °C and 48.1 °C, respectively.
As to “MQWLRVRESPGEATGHRVTMGTAALGPVWAALLLFLLMCEIPMVELTFDRAVASGCQRCCDSEDPLDPAHVSSASSSGRPHALPEIRPYINITILKGDKGDPGPMGLPGYMGREGPQGEPGPQGSKGDKGEMGSPGAPCQKRFFAFSVGRKTALHSGEDFQTLLFERVFVNLDGCFDMATGQFAAPLRGIYFFSLNVHSWNYKETYVHIMHNQKEAVILYAQPSERSIMQSQSVMLDLAYGDRVWVRLFKRQRENAIYSNDFDTYITFSGHLIKAEDD [C1QTNF6]”, the thermal stability score in the data set on HeLa Kyoto [1] (setting [5]) was 0.27; with HeLa Kyoto [1] (cell cycle stage: mitosis) it was -0.884. For the same sequence, in the data set on HeLa Kyoto [2], the “solubility change mitosis (log2)” value was -0.235. Also, the “solubility in G1/S (log2)” value with HeLa Kyoto [3] stood at 0.0492. Also, the melting temperature with HeLa Kyoto [4] (cell cycle stage: mitosis) was found to be 55 °C.
With “MSEGNAAGEPSTPGGPRPLLTGARGLIGRRPAPPLTPGRLPSIRSRDLTLGGVKKKTFTPNIISRKIKEEPKEEVTVKKEKRERDRDRQREGHGRGRGRPEVIQSHSIFEQGPAEMMKKKGNWDKTVDVSDMGPSHIINIKKEKRETDEETKQILRMLEKDDFLDDPGLRNDTRNMPVQLPLAHSGWLFKEENDEPDVKPWLAGPKEEDMEVDIPAVKVKEEPRDEEEEAKMKAPPKAARKTPGLPKDVSVAELLRELSLTKEEELLFLQLPDTLPGQPPTQDIKPIKTEVQGEDGQVVLIKQEKDREAKLAENACTLADLTEGQVGKLLIRKSGRVQLLLGKVTLDVTMGTACSFLQELVSVGLGDSRTGEMTVLGHVKHKLVCSPDFESLLDHKHR [POLR3D]”, the thermal stability score is -0.688 with HeLa Kyoto [1] (setting [5]) and -1.1 in the data set on HeLa Kyoto [1] (cell cycle stage: mitosis). For the same sequence, the “solubility change mitosis (log2)” value in the data set with HeLa Kyoto [2] was -0.118. Further, the “solubility in G1/S (log2)” value with HeLa Kyoto [3] is 0.144. Moreover, the melting temperature with HeLa Kyoto [4] (cell cycle stage: mitosis) was 48.8 °C.
